Experimental data reported in the supplement of paper PMC10567573.
± gives the standard deviation.

Assay: protein stability index of a GFP-peptide fusion (GPS, HEK-293T) (PSI 1-6); higher = more stable
[1] = treatment: DMSO, c terminus: a fixed tail appended
[2] = treatment: MLN4924 1 uM, 8 h, c terminus: a fixed tail appended
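Also: 24-mer peptide tiles fused after GFP, lentivirally expressed, FACS-sorted into six equal bins by GFP/DsRed ratio, decoded by Illumina sequencing, PSI is the read-weighted mean bin number.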

Sequence	protein stability index [1]	protein stability index [2]	protein stability index (treatment: DMSO, c terminus: native)	protein stability index (treatment: MLN4924 1 uM, 8 h, c terminus: native)
HAQTFVALCATDVKFISNPPSMVA [CCND1]	2.11 ± 0.29	2.08 ± 0.46	–	–
HARNGLSLKEEHRAYDLLRAASEN [IKZF1]	3.73 ± 0.28	4.03 ± 0.35	–	–
HCASPPPSSNNKELFYRVNYIGTK [NSDHL]	3.18 ± 0.17	3.31 ± 0.19	–	–
HDIDCQWVDITDVPPGDYLFQVVI [LOXL2]	3.01 ± 0.2	2.92 ± 0.41	–	–
HDYHGILVDEEEKVLIQKNLGPKS [ADD1]	4.79 ± 0.33	4.9 ± 0.075	–	–
HEDHMVNLRYGFTKEVMNKYKVHG [PPEF2]	3.24 ± 0.51	3.58 ± 0.53	–	–
HEPLSKERVEAFSDGVYAIVATLL [TMEM175]	2.15 ± 0.28	2.15 ± 0.11	–	–
HGASPGLRDGGGLTPLELLLRQLG [ANKRD9]	2.66 ± 0.15	2.76 ± 0.35	–	–
HGDSQQTHLLKQGRSSMGTGLSGG [CRY1]	4.36 ± 0.16	4.43 ± 0.14	–	–
HGGLYKPVQCHPSTGYCWCVLVDT [SMOC2]	2.46 ± 0.86	2.39 ± 0.74	–	–
HHHLHKTLREITDQEHNVAALKQA [TEKT4]	4.35 ± 0.13	4.52 ± 0.11	–	–
HHSTQPKRNKRNPIFQDSQDTEVF [FAM104B]	4.19 ± 0.34	4.63 ± 0.27	–	–
HKSHRGMTPAEAEMHFLENAKKLS [EPB41L3]	4.38 ± 0.21	4.25 ± 0.47	–	–
HLNGHAMCQTKHSPWADGTPCGPA [ADAMTS4]	3.12 ± 0.35	3.11 ± 0.22	–	–
HLVPEPDRLEEQLPWLSLRALKFR [DNAAF3]	2.63 ± 0.1	2.78 ± 0.26	–	–
HMGTNVIVANTMPTHLSNGQMSTP [HNF4A]	3.6 ± 0.18	3.66 ± 0.33	–	–
HMILENCSISKMEEEAGQTSIEPS [ZER1]	5.14 ± 0.13	5.2 ± 0.18	–	–
HNAHQLAAWCLHHICTNYNSVCSK [RHOBTB1]	2.85 ± 0.55	2.79 ± 0.59	–	–
HNAWLSYSLLPQSTAPGLFLVSTH [PCDHGC5]	2.51 ± 0.58	2.63 ± 0.56	–	–
HQLVMEGYNWCHDRNVVTIFSAPN [PPP2CA]	2.51 ± 0.14	2.49 ± 0.18	–	–
HTGDKPYKCAECGKSFCHSTHLTV [ZNF8]	3.8 ± 0.12	3.85 ± 0.36	–	–
HTPLISKSQSLRSVRRSESWARPR [RASAL3]	3.45 ± 0.29	3.66 ± 0.22	–	–

Sequence	protein stability index [1]	protein stability index [2]	protein stability index (treatment: DMSO, c terminus: native)	protein stability index (treatment: MLN4924 1 uM, 8 h, c terminus: native)
HTPQSSVKTSVPSSKSSGDLVDLF [CLINT1]	4.03 ± 0.16	4.26 ± 0.053	–	–
HTSVVCYLLDYPNNLLSAPPPDVT [ANKRD17]	2.46 ± 0.39	2.26 ± 0.44	–	–
HVPLLAEPSFAQFSQEIGLASLGA [TPH1]	2.93 ± 0.26	3.09 ± 0.12	–	–
HYEFNLSRMKFRGNGALSNISDLP [LCOR]	2.7 ± 0.18	2.76 ± 0.23	–	–
HYRELLDSLPMDAYTHGCILHPEL [GDAP1]	2.36 ± 0.2	2.43 ± 0.034	–	–
IDGIQAIYGRSQNPVQPIGPQTPK [MMP1]	3.97 ± 0.074	4.07 ± 0.36	–	–
IDLLTFLTGQKAVKVHGLLKTFVK [GFOD1]	2.93 ± 0.62	2.67 ± 0.31	–	–
IDQWKNKIWPEIKVPRPDALDNES [RETREG3]	4.14 ± 0.24	4.3 ± 0.27	–	–
IDRQKCMAHRTRYPTILQLAGYQ [TEKT4]	–	–	2.26 ± 0.37	2.14 ± 0.35
IEKVSVSTQTKKLSASSPRMLHRS [ZMYND11]	3.96 ± 0.23	4.03 ± 0.34	–	–
IEQQQIRNALENIRKEMKLLEQAG [CRYL1]	3.84 ± 0.17	4.27 ± 0.62	–	–
IFATKPHVLPAVLAEVAPVVTTEH [PYCR3]	3.33 ± 0.38	3.4 ± 0.21	–	–
IFSFGQLPLALVTWVPMFLSTLLA [SOAT2]	2.9 ± 0.43	2.72 ± 0.56	–	–
IGPLETMHLNAEGMLSYCDRYSEG [CRYL1]	3.47 ± 0.48	3.27 ± 0.28	–	–
IHGGVVNIHENKRTGSLFKIWLVV [KLHDC10]	2.85 ± 0.47	2.45 ± 0.62	–	–
IIELRRTVNALEIELQAQHSMRNS [KRT36]	2.38 ± 0.26	2.32 ± 0.33	–	–
IKIIKNKKAFLNQAQIELRLLELM [DYRK1B]	2.75 ± 0.47	2.6 ± 0.43	–	–
IKKLIYVHLVIWLLLVAKMSVGHL [JAGN1]	3.31 ± 0.35	3.13 ± 0.24	–	–
IKLLQSSGADFHKKDKCGRTPLHY [ANKRD44]	2.42 ± 0.2	2.6 ± 0.38	–	–
IKVTSATSVNLGILTADLYSLFVG [SLC35F2]	3.07 ± 0.36	2.92 ± 0.42	–	–
ILAVSFAPLVQPSKNDNGKPDSVG [PCMTD1]	2.98 ± 0.27	3.14 ± 0.35	–	–
ILIELAMRGRIYLEPPTMRKKRLL [GOLPH3L]	2.66 ± 0.25	2.74 ± 0.66	–	–

Sequence	protein stability index [1]	protein stability index [2]	protein stability index (treatment: DMSO, c terminus: native)	protein stability index (treatment: MLN4924 1 uM, 8 h, c terminus: native)
ILIIRFEMPYNIWCDGCKNHIGMG [YJU2B]	3.24 ± 0.36	2.96 ± 0.71	–	–
ILLEYCSRRSMAHILKARKVLTEP [PLK2]	2.48 ± 0.5	2.18 ± 0.33	–	–
ILPKQSRKSMLDAGPDSWGSDAEQ [LCOR]	4.51 ± 0.15	4.55 ± 0.21	–	–
ILVYDIANRWSFDGIDRWIKEIDE [RAB40B]	2.11 ± 0.57	1.93 ± 0.31	–	–
INGLRRVLDELTLARADLEMQIEN [KRT17]	3.1 ± 0.45	2.82 ± 0.38	–	–
IPSTPEEVSADDETPNPPQSAQIA [MAGEA10]	5.42 ± 0.1	5.44 ± 0.16	–	–
IQRIDENVLGAQLDVEAAHSEILK [STX5]	4.15 ± 0.17	4.22 ± 0.25	–	–
IQSGAWVCYQYPGYRGYQYILECD [CRYBA1]	2.39 ± 0.38	2.58 ± 0.59	–	–
IRRFLSAFHEPQVGLIQAAQQLLC [DFFB]	2.18 ± 0.38	2.14 ± 0.17	–	–
IRVQGREFRAHRAVLAASSPYFHD [ZBTB22]	2.55 ± 0.21	2.41 ± 0.16	–	–
ISHEEQKSVRLARELESREAELRR [CHCHD6]	5 ± 0.3	5.14 ± 0.37	–	–
ISLDVLQPSFPEILLESHMVMIRG [POMT2]	2.34 ± 0.39	2.41 ± 0.71	–	–
ISSIKEKYPSHSFIGEESVAAGEK [IMPA1]	4.8 ± 0.13	4.81 ± 0.23	–	–
ISVQNYKQVCKIAALHGLEETKKL [KLHL14]	2.29 ± 0.24	2.31 ± 0.3	–	–
IVRLHDSISEEGFHYLVFDLVTGG [CAMK2B]	2.85 ± 0.66	2.65 ± 0.52	–	–
IVTTVTTVQSRPRIDGKLDSPSRS [C2CD2L]	3.4 ± 0.19	3.49 ± 0.27	–	–
IYRDSYPRNPTVRWGYVAMKFAQV [SOAT1]	2.79 ± 0.47	2.67 ± 0.53	–	–
KAKHFKCHICHKKLYTGPGLAIHC [ZNF207]	2.33 ± 0.23	2.62 ± 0.76	–	–
KCILKTPGKINCLRNCKTYQARKP [RHOBTB3]	2.98 ± 0.17	3.03 ± 0.26	–	–
KCKPSLPAEAEGAAQELENQMKER [TMEM120A]	5.42 ± 0.19	5.49 ± 0.2	–	–
KCLSIMLAEWEANPLICPVCTKYN [RPAIN]	2.8 ± 0.73	2.29 ± 0.19	–	–
